In CN111777681A (SHANGHAI LIANGYUE BIOMEDICAL TECH CO LTD, dated 2020):
Each block holds one binder with its values, some of them ahead of it.

Target: T1, 人Claudin 18.2 (紧密连接蛋白-18.2) (human)
T1 construct: Full-length protein stably expressed on HEK293 or NIH-3T3 cells; also called 紧密连接蛋白18剪接变体2
Assay: flow cytometry on HEK293-Claudin 18.2 stable cells, recombinant antibody titrated from 600 nM in 3-fold steps

T1 sequence (chain, as listed by the source limits assumed): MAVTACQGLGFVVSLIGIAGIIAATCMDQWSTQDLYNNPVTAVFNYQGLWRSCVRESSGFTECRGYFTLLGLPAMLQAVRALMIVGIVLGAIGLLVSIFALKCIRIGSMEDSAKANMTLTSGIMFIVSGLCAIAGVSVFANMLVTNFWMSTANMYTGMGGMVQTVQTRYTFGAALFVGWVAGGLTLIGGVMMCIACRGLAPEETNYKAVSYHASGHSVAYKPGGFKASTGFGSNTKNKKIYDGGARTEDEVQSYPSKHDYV

EC50: 1.18 nM
B1: 4F6-G11 (antibody, V domains shown)
VH: DVQLVESGGGLVQPGGSRKLSCGASGFTFSSFGMHWVRQAPEKGLEWVAYISSDSSTKHYADIVKGRFTVSRDNPRNTLFLQMTSLGSEDTAIYYCARLRRGGNALDYWGQGTSVTVSS
VL: DIVMTQSPSFLTVTAGEKVTMSCRSSQSLLNSGNQRNYLTWYQHKPGQSPKLLIYWASTRESGVPDRFTGSGSGTTFTLTISSVQPEDLAVFYCQNNYYFPFTFGSGTKLEIR
notes: Mouse monoclonal antibody; also called 4F6-Gl1; 重组抗体4F6-G11

EC50: 1.01 nM
B2: 3H2-C5 (antibody, V domains shown)
VH: DVQLVESGGGLLQPGGSRKLSCAASGFSFSNFGMHWFRQAPEKGLEWVAFISGGSSPIYYADTVKGRFTISRDNPTNTLFLQMTSLRSEDTAMYYCARFRRGGNAMDYWGQGTSVTVSS
VL: DIVMTQSPSSLTVTAREKVTMSCKSSQSLFNSGNQRNYLTWYQQKPGQPPKLLIYWASTRESGVPDRFTGSGSGTDFTLTIRSVQAEDLAVYYCQNSYSYPFTLGSGTKLEIK
notes: Mouse monoclonal antibody; also called 抗体3H2-C5; 重组抗体3H2-C5
